Data on two molecules can be found in PMC3626232 (The Journal of biological chemistry, 2000).

The data set “SEC” concerns the molecule itself. Description: SEC. For orientation: SEC sorts molecules by how far they enter the pores of the column.
The next data set has as its target XMcm(2+4+6+7) tetramer (Xenopus (endogenous in Xenopus egg …, UniProt P55861 1-886; P30664 1-863; Q5FWY4 1-821; Q91876 1-720). Briefly: SEC.

As a reminder, the stoichiometry N is the number of molecules, sites or subunits per partner or assembly.

Sequence of XMcm(2+4+6+7) tetramer (Xenopus (P30664 whole entry, chain 2 of 2): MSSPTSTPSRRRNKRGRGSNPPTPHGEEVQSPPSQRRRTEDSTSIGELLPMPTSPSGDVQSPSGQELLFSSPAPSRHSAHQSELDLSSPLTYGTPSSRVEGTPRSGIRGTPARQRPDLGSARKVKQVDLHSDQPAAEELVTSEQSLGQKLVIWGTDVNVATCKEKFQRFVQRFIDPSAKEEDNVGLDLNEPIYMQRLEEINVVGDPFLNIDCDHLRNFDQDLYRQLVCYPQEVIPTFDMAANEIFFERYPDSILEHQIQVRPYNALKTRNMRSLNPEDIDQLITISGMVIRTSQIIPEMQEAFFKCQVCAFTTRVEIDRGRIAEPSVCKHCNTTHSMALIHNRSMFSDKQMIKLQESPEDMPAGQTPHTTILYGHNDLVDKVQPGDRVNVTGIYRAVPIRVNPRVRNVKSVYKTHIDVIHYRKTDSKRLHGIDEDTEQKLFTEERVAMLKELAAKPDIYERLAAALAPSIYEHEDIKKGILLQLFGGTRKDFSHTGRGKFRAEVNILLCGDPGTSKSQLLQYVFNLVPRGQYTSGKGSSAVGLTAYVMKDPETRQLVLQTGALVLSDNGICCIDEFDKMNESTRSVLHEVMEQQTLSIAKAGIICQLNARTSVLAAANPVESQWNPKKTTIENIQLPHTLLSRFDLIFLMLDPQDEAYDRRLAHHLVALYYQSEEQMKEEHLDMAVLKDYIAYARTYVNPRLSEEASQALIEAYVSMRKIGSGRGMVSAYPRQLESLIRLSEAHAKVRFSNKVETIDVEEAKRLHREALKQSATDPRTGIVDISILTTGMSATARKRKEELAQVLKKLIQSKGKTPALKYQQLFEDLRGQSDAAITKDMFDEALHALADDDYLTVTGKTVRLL
Sequence of XMcm(2+4+6+7) tetramer (Xenopus (Q5FWY4 whole entry, chain 3 of 2): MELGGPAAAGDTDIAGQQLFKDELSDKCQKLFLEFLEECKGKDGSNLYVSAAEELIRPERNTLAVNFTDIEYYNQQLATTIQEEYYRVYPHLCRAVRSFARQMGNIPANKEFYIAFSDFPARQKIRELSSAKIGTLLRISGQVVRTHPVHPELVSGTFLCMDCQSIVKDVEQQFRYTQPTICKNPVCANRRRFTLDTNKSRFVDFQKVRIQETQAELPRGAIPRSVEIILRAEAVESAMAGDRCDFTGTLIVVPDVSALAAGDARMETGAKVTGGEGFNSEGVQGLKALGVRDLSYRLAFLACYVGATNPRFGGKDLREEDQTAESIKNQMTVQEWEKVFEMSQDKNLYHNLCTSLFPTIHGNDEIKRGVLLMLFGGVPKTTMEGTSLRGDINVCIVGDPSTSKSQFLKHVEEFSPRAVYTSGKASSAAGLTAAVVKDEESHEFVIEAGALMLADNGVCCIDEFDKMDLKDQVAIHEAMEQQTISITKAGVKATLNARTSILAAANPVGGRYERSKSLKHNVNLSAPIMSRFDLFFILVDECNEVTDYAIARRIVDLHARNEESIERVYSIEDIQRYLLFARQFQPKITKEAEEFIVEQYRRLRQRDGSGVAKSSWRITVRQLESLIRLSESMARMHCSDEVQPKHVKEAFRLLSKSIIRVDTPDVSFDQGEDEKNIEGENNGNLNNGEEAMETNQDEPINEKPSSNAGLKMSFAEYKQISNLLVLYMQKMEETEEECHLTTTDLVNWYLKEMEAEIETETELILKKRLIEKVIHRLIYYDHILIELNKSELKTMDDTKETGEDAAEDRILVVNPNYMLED

B1: XMcm2 (natural protein, UniProt P55861 1-886, looked up)
chain: MADSSESFNIATSPRAGSRRDALTSSPGRDLPPFEDESEGMFGDGVVPEEEEDGEELIGDAMERDYRPISELDRYEVEGLDDEEDVEDLTASQREAAEQSMRMRDREMGRELGRMRRGLLYDSDEEEEDRPARKRRMAERAAEGAPEEDEEMIESIENLEDMKGHTVREWVSMAATRLEIYHRFKNFLRTHVDEHGHNVFKEKISDMCKENKESLPVNYEDLAAREHVLAYFLPEAPAEMLKIFDEAAKEVVLVMYPKYDRIAREIHVRISHLPLVEELRSLRQLHLNQLIRTSGVVTCCTGVLPQLSMVKYNCNKCNFILGPFFQSQNQEVRPGSCPECQSFGPFEINMEETVYQNYQRITIQESPGKVAAGRLPRSKDAILLADLVDSCKPGDEIELTGIYHNNYDGSLNTANGFPVFATVILANHITKKDDKVAVGELTDEDVKAIVALSKDERIGERIFASIAPSIYGHEDIKRGLALALFGGEAKNPGGKHKVRGDINVLLCGDPGTAKSQFLKYVEKVASRAVFTTGQGASAVGLTAYVQRHPVTKEWTLEAGALVLADRGVCLIDEFDKMNDQDRTSIHEAMEQQSISISKAGIVTSLQARCTVIAASNPIGGRYDPSLTFSENVDLTEPIVSRFDILCVVRDTVDPVQDEMLARFVVSSHIKHHPSSKDIANGDAAEFALPNTFGVEALPQEVLKKYIMYAKEKIRPKLNQMDQDKVAKMYSDLRKESMATGSIPITVRHIESMIRMAEAHARMHLRDYVVEDDVNMAIRVMLESFIDTQKFSVMRSMRKTFARYLAFRRDNNELLLFVLKQLIAEQVTYQRNRYGAQQDTIEVPEKDLVDKARQINIHNLSAFYDSDLFKMNKFTHDVKKKLIIQQF
For B1, in the data set “SEC”, the “stoichiometry N” value is 2.

B2: XMcm(3+7) hetero-dimer (complex)
chain 1: MDYGGGFEDHELREAQREYLDFLDDDQDQGLYHGKVRDMIGSNEHRLIVNLNDVRRKNDKRANLMLNDAFAETIAFQRALKDLVASIDATYAKQFEEFSVGFEGSFGSKHVSPRTLTASLLGSLVCVEGIVTKCSLVRPKVMRSVHYCPATKKTLERKYSDLTSLEAFPSSSIYPTKDEENNPLETEYGLSTYKDHQTLSIQEMPEKAPAGQLPRSVDIIADDDLVDKCKPGDRVQIVGIYRCLPSKQGGFTSGTFRTILLANNIKLMSKEIAPTFSADDVAKIKKFCKAHSKDIFEHLSKSLAPSIHGHEYIKKAILCMLLGGNEKVLENGTRIRGDINVLLIGDPSVAKSQLLRYVLHTAPRAIPTTGRGSSGVGLTAAVTTDQETGERRLEAGAMVLADRGVVCIDEFDKMSDMDRTAIHEVMEQGRVTIAKAGIQARLNARCSVLAAANPVYGRYDQYRTPMENIGLQDSLLSRFDLLFIVLDKMDADNDQEIADHVLRMHRYRTPGEQDGYALPLGCSVEIFATDDPNASDVTDQELQIYEKHDNLLHGPRKNKSKIVSMQFIRKYIHVAKLIKPVLTSEAADYISQEYAKIRNHDQINNDSARTMPVTARALETMIRLSTAHAKVRMSKTIERQDAETALELVQFAYFKKVLAKEKKKTDKDLHDENLSQDTLSQESVRKSSRRAGKIADSQDDSMDPYSFSEQDSSLNENLSQSLRPQRKKAESQDGKRSLSQNRTKEFKAALLKAFKSSRSQSVAVSQLLELINKGNPEPFERSEVKEALDNMQNDNQVMVSEDVVFLI
chain 2: MPRDYQTEKEKCKTFLQEFYKDDEIGKKHFKYGVQLANIAHREQVALYIDLDDLAEEDPELVDAICENTRRYTNLFADAVQELLPQYKEREVVHKDALDVYIEHRLMMEQRGRDPNEMRDSQNQYPPELMRRFELYFKAPSSSKARVVRDVKADSIGKLVNIRGIVTRVTEVKPMMVVATYTCDQCGAETYQPIQSPTFMPLIMCPSRECQTNRSGGRLYLQTRGSKFIKFQELKIQEHSDQVPVGNIPRCMSVYVRGENTRLAQPGDHVGITGVFLPMLRTGFRQVVQGLLSETYLECHRLVKMNKSEDDELGTEELSEEELRQITEEDFYEKLAASIAPEIYGHEDVKKALLLLLVGGVDNSPRGMKIRGNINICLMGDPGVAKSQLLSYIDRLAPRSQYTTGRGSSGVGLTAAVMKDPVTGEMTLEGGALVLADQGVCCIDEFDKMMDTDRTAIHEVMEQQTISIAKAGIMTTLNARCSILAAANPAYGRYNPKKTVEQNIQLPAALLSRFDVLWLIQDKPDRDNDLRLAQHITYVHQHSKQPPSQFQPLDMKLMRRYITMCKRKQPAIPEALADYLTAAYVEMRKEARTNKDMTFTSARTLLSVLRLSTALARLRLEDVVEKEDVNEAMRLMEMSKDSLLGDKGHTSRTQRPADVIFSTIREMVPEKGARSVKYSEAEQRCVSKGFTPAQFEAALEEYEELNVWLVNQARTKITFV
With B2, the binding result with XMcm(2+4+6+7) tetramer is given as “binds”.
